Here are results for two molecules from PMC3607351 (Structure (London, England : 1993), 2012).

One may read the stoichiometry N as a count of units in the complex or per binding partner. Usually Kd stands for the concentration at which binding is half-saturated. The low end stands for tighter binding, the high end for weaker binding.

In data set [1] the target is Recombinant mouse RANKL (residues 162-316), receptor-binding ectodomain, trimer (mouse) (UniProt O35235). The data set can be described thus: SPR. In general terms: Surface plasmon resonance follows binding to a sensor surface in real time, without labels.
The data set “crystal structure” concerns the molecule itself. The data set can be described thus: crystal structure.
Data set [2] concerns the target T1, Extracellular cytokine-binding domain of mouse RANK (all four CRDs, residues 1-198) (mouse, UniProt O35305 31-198).
T1 sequence (looked up): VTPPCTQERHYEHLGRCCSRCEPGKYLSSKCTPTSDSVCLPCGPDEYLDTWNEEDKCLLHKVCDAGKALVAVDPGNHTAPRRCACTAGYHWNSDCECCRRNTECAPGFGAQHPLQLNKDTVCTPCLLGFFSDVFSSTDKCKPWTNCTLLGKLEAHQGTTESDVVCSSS
Description: SPR.

Consider “Mouse OPG F96A CRD fragment (CRDs 1 through 4) (from UniProt O08712 22-191) (domain or fragment)”, for which, in data set [1], the fold decrease in affinity against wild-type OPG CRDs was 60 fold and the fold slower on-rate than wild-type OPG CRDs is 30 fold.

B1: Recombinant mouse RANKL (residues 162-316), receptor-binding ectodomain, trimer (ligand, UniProt O35235-1 162-316, looked up)
chain: QPFAHLTINAASIPSGSHKVTLSSWYHDRGWAKISNMTLSNGKLRVNQDGFYYLYANICFRHHETSGSVPTDYLQLMVYVVKTSIKIPSSHNLMKGGSTKNWSGNSEFHFYSINVGGFFKLRAGEEISIQVSNPSLLDPDQDATYFGAFKVQDID
As for B1, in “crystal structure”, the “stoichiometry N” value is 3. The same molecule yielded a Kd in data set [2] of 2090 nM.
